From PMC9482650, “Quantitative fragmentomics allow affinity mapping of interactomes” (Nature Communications, 2022)

Experiments:
Test in all cases: holdup assay
Parameters in all cases: key: below the threshold = too weak to quantify, mostly under pKd 3.1 to 4
LNX2_2, Q8N448 = target: T1, LNX2_2, Q8N448
T1 sequence (Q8N448 334-432, limits assumed, looked up): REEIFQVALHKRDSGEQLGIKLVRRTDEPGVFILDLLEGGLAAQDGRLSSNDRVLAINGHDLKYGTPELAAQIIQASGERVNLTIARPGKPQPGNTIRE

ARHGEF11, O15085 = target: T2, ARHGEF11, O15085
T2 sequence (O15085 42-136, limits assumed, looked up): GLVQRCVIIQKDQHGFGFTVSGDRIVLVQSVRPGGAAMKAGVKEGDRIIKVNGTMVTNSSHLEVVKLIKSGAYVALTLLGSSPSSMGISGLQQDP

MPDZ_5, O75970 = target: T3, MPDZ_5, O75970
T3 sequence (O75970 695-796, limits assumed, looked up): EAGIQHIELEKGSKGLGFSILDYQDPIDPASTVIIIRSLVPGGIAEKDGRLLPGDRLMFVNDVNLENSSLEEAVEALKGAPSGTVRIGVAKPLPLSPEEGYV

PDZRN4_1, Q6ZMN7 = target: PDZRN4_1, Q6ZMN7
PDZRN4_1, Q6ZMN7, sequence (Q6ZMN7 213-318): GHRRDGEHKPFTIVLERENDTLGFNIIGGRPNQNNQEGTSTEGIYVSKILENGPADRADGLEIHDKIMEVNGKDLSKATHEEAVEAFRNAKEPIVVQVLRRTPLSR

RADIL, Q96JH8 = target: T4, RADIL, Q96JH8
T4 sequence (Q96JH8 971-1071, limits assumed, looked up): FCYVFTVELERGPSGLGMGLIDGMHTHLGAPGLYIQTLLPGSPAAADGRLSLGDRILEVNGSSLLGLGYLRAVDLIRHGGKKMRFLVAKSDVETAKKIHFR

Inadl_10, Q8NI35 = target: Inadl_10, Q8NI35
Inadl_10, Q8NI35, sequence (Q8NI35 1673-1763): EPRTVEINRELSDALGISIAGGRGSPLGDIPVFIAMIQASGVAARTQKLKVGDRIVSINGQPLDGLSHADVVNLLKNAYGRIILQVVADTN

SNTB1, Q13884 = target: T5, SNTB1, Q13884
T5 sequence (Q13884 107-205, limits assumed, looked up): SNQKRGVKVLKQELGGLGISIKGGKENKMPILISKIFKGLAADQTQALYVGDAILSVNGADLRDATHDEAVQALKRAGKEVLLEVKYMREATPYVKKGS

DLG4_2, P78352 = target: DLG4_2, P78352
DLG4_2, P78352, sequence (P78352 155-259): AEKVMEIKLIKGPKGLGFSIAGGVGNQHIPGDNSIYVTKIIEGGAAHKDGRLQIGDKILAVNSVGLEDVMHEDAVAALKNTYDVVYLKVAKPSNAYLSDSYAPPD

APBA1_1, Q02410 = target: T6, APBA1_1, Q02410
T6 sequence (Q02410 651-752, limits assumed, looked up): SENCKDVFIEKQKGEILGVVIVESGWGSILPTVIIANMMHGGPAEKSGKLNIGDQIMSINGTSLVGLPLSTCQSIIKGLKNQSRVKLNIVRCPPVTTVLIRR

TX1BP3, O14907 = target: T7, TX1BP3, O14907
T7 sequence (O14907 10-122, limits assumed, looked up): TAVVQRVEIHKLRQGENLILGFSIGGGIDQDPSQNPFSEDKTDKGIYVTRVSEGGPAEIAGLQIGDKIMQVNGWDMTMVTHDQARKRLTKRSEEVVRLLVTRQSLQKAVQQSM

MAGI2_4, Q86UL8 = target: MAGI2_4, Q86UL8
MAGI2_4, Q86UL8, sequence (Q86UL8 772-865): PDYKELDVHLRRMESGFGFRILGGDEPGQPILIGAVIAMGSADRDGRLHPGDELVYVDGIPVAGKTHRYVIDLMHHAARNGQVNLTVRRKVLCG

TJP1_2, Q07157 = target: TJP1_2, Q07157
TJP1_2, Q07157, sequence (Q07157 181-274): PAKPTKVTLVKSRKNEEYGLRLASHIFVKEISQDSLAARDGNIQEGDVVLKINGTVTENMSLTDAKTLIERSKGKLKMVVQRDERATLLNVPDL

AHNAK1, Q09666 = target: AHNAK1, Q09666
AHNAK1, Q09666, sequence (Q09666 4-100): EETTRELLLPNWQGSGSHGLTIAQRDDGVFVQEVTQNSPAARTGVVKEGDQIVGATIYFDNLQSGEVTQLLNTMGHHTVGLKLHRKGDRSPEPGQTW

MPP2, Q14168 = target: T8, MPP2, Q14168
T8 sequence (Q14168 180-250, limits assumed, looked up): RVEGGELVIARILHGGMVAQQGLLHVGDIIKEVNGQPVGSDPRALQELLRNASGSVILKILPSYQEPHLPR

DLG1_3, Q12959 = target: DLG1_3, Q12959
TJP2_1, Q9UDY2 = target: TJP2_1, Q9UDY2
TJP2_1, Q9UDY2, sequence (Q9UDY2 24-128): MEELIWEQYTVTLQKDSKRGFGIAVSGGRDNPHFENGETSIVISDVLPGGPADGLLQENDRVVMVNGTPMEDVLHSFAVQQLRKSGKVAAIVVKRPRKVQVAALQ

GRIP1_2, Q9Y3R0 = target: T9, GRIP1_2, Q9Y3R0
T9 sequence (Q9Y3R0 145-248, limits assumed, looked up): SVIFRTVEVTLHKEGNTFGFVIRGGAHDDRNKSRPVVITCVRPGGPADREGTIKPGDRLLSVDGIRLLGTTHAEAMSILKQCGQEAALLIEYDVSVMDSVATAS

PICK1, Q9NRD5 = target: PICK1, Q9NRD5
PICK1, Q9NRD5, sequence (Q9NRD5 17-115): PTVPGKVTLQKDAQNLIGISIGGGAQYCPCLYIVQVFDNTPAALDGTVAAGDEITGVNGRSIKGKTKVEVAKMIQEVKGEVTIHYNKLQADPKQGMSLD

DLG1_1, Q12959 = target: DLG1_1, Q12959
DLG2_3, Q15700 = target: DLG2_3, Q15700
DLG3_1, Q92796 = target: T10, DLG3_1, Q92796
T10 sequence (Q92796 125-227, limits assumed, looked up): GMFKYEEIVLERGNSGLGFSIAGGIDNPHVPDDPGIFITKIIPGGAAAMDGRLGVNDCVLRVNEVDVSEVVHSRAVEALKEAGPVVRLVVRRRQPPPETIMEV

LAP2, Q96RT1 = target: LAP2, Q96RT1
LAP2, Q96RT1, sequence (Q96RT1 other isoform, or with tags, fused parts or gaps): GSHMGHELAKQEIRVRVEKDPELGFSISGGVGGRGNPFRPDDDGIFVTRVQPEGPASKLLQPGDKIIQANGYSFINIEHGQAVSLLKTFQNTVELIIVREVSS

APBA2_2, Q99767 = target: T11, APBA2_2, Q99767
T11 sequence (Q99767 654-744, limits assumed, looked up): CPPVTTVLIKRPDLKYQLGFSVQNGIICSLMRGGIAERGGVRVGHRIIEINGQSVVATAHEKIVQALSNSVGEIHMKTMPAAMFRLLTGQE

MAGI3_2, Q5TCQ9 = target: MAGI3_2, Q5TCQ9
MAGI3_2, Q5TCQ9, sequence (Q5TCQ9 398-503): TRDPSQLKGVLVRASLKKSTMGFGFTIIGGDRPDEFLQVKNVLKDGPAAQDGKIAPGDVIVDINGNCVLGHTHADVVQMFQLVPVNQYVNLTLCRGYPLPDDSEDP

CARD11, Q9BXL7 = target: T12, CARD11, Q9BXL7
T12 sequence (Q9BXL7 662-765, limits assumed, looked up): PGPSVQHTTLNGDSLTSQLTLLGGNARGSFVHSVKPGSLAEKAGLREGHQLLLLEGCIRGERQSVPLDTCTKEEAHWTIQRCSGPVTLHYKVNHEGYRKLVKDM

LNX1_2, Q8TBB1 = target: LNX1_2, Q8TBB1
LNX1_2, Q8TBB1, sequence (Q8TBB1 371-470): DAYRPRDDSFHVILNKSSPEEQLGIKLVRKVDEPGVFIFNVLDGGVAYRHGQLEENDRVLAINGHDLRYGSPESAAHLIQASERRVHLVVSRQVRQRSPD

[1] = plain residues with an end cap or a label only (N-terminal biotin on a linker: ado-ado)
[2] = modified: phospho on T at position -2 from the C-terminal residue

Measured: pKd

B1: ACTN2, P35609 (peptide)
chain: SSALYGESDL
below the threshold: LNX2_2, Q8N448; [1] | ARHGEF11, O15085; [1] | MPDZ_5, O75970; [1] | RADIL, Q96JH8; [1] | Inadl_10, Q8NI35; [1] | APBA1_1, Q02410; [1] | MAGI2_4, Q86UL8; [1] | TJP1_2, Q07157; [1] | AHNAK1, Q09666; [1] | MPP2, Q14168; [1] | TJP2_1, Q9UDY2; [1] | GRIP1_2, Q9Y3R0; [1] | PICK1, Q9NRD5; [1] | DLG1_1, Q12959; [1] | DLG3_1, Q92796; [1] | MAGI3_2, Q5TCQ9; [1] | CARD11, Q9BXL7; [1] | LNX1_2, Q8TBB1; [1]
3.94: DLG2_3, Q15700; [1]
3.75: DLG1_3, Q12959; [1]
3.96: LAP2, Q96RT1; [1]
4.9: TX1BP3, O14907; [1]
3.62: PDZRN4_1, Q6ZMN7; [1]
3.47: APBA2_2, Q99767; [1]
3.61: DLG4_2, P78352; [1]
4.05: SNTB1, Q13884; [1]

B2: HPV18-E6_-2P, P06463 (peptide)
chain: RLQRRRETQV
3.65: DLG4_2, P78352; [2]
3.88: DLG2_3, Q15700; [2]
below the threshold: LNX2_2, Q8N448; [2] | ARHGEF11, O15085; [2] | MPDZ_5, O75970; [2] | PDZRN4_1, Q6ZMN7; [2] | RADIL, Q96JH8; [2] | Inadl_10, Q8NI35; [2] | SNTB1, Q13884; [2] | APBA1_1, Q02410; [2] | TX1BP3, O14907; [2] | MAGI2_4, Q86UL8; [2] | TJP1_2, Q07157; [2] | AHNAK1, Q09666; [2] | MPP2, Q14168; [2] | DLG1_3, Q12959; [2] | TJP2_1, Q9UDY2; [2] | GRIP1_2, Q9Y3R0; [2] | PICK1, Q9NRD5; [2] | DLG1_1, Q12959; [2] | DLG3_1, Q92796; [2] | LAP2, Q96RT1; [2] | APBA2_2, Q99767; [2] | MAGI3_2, Q5TCQ9; [2] | CARD11, Q9BXL7; [2] | LNX1_2, Q8TBB1; [2]

B3: CCDC134, Q9H6E4 (peptide)
chain: PRISRSQSEL
3.88: ARHGEF11, O15085; [1]
4.25: MAGI3_2, Q5TCQ9; [1]
below the threshold: LNX2_2, Q8N448; [1] | MPDZ_5, O75970; [1] | PDZRN4_1, Q6ZMN7; [1] | RADIL, Q96JH8; [1] | Inadl_10, Q8NI35; [1] | SNTB1, Q13884; [1] | DLG4_2, P78352; [1] | APBA1_1, Q02410; [1] | MAGI2_4, Q86UL8; [1] | TJP1_2, Q07157; [1] | AHNAK1, Q09666; [1] | MPP2, Q14168; [1] | DLG1_3, Q12959; [1] | TJP2_1, Q9UDY2; [1] | GRIP1_2, Q9Y3R0; [1] | DLG1_1, Q12959; [1] | DLG3_1, Q92796; [1] | LAP2, Q96RT1; [1] | APBA2_2, Q99767; [1] | CARD11, Q9BXL7; [1] | LNX1_2, Q8TBB1; [1]
4.14: PICK1, Q9NRD5; [1]
3.63: DLG2_3, Q15700; [1]
3.52: TX1BP3, O14907; [1]

B4: LPXN, O60711 (peptide)
chain: QPCFNKLFPL
below the threshold: LNX2_2, Q8N448; [1] | ARHGEF11, O15085; [1] | MPDZ_5, O75970; [1] | PDZRN4_1, Q6ZMN7; [1] | RADIL, Q96JH8; [1] | Inadl_10, Q8NI35; [1] | SNTB1, Q13884; [1] | DLG4_2, P78352; [1] | APBA1_1, Q02410; [1] | TX1BP3, O14907; [1] | MAGI2_4, Q86UL8; [1] | TJP1_2, Q07157; [1] | AHNAK1, Q09666; [1] | MPP2, Q14168; [1] | DLG1_3, Q12959; [1] | TJP2_1, Q9UDY2; [1] | GRIP1_2, Q9Y3R0; [1] | PICK1, Q9NRD5; [1] | DLG1_1, Q12959; [1] | DLG2_3, Q15700; [1] | DLG3_1, Q92796; [1] | LAP2, Q96RT1; [1] | APBA2_2, Q99767; [1] | MAGI3_2, Q5TCQ9; [1] | CARD11, Q9BXL7; [1] | LNX1_2, Q8TBB1; [1]

B5: TRPC5, Q9UL62 (peptide)
chain: GQEEQVTTRL
4.37: ARHGEF11, O15085; [1]
below the threshold: LNX2_2, Q8N448; [1] | MPDZ_5, O75970; [1] | RADIL, Q96JH8; [1] | Inadl_10, Q8NI35; [1] | DLG4_2, P78352; [1] | APBA1_1, Q02410; [1] | MAGI2_4, Q86UL8; [1] | TJP1_2, Q07157; [1] | AHNAK1, Q09666; [1] | MPP2, Q14168; [1] | DLG1_3, Q12959; [1] | TJP2_1, Q9UDY2; [1] | GRIP1_2, Q9Y3R0; [1] | DLG1_1, Q12959; [1] | DLG2_3, Q15700; [1] | DLG3_1, Q92796; [1] | LAP2, Q96RT1; [1] | APBA2_2, Q99767; [1] | MAGI3_2, Q5TCQ9; [1] | CARD11, Q9BXL7; [1] | LNX1_2, Q8TBB1; [1]
4.06: PICK1, Q9NRD5; [1]
3.64: PDZRN4_1, Q6ZMN7; [1]
3.69: TX1BP3, O14907; [1]
4.04: SNTB1, Q13884; [1]
